The source of these data is US20260373285 (published 2026).

To fix the notation:
T1: human Trop-2 on MDA-MB-468 cells (human, UniProt P09758)
T1 chain: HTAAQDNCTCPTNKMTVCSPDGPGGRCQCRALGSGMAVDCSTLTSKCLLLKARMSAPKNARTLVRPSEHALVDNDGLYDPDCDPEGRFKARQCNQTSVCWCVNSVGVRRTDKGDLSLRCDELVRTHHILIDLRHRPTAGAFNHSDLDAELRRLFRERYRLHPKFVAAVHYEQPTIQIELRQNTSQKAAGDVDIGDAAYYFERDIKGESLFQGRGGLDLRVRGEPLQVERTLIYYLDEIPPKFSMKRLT

T2: human Trop-2 (His) (human, UniProt P09758)
T2 chain: T1 chain

B1: Trop-2-A-258hz5 (antibody, V domains shown)
VH: QVQLVESGGGLVQPGGSLRLSCAASDRTFSEYNADWFRQAPGKEREFVAAITWSGKNTRYADSVKGRFTVSRDNSKNTVYLQMNSLRPADTAVYYCATDRWWAAGNWDGVDYWGQGTLVTVSS
B2: Trop-2-A-258hz7 (antibody, V domains shown)
VH: B1 VH with P88A, A89E
B3: Trop-2-YC-82hz-4 (antibody, V domains shown)
VH: EVQVVESGGGLVQPGGSLRLSCAASGYIFSNSGMGWYRQAPGQGLELVAAISSGGTTHYADSVKGRFTISRDNSKNTLYLQMNSLRAEDTAVYYCNGDRYYSGTDVFGSWGQGTLVTVSS
B4: Trop-2-YC-82hz-2 (antibody, V domains shown)
VH: B3 VH with A24T, Q43K, G44Q, L45R, L78V
B5: Trop-2-YC-82hz-5 (antibody, V domains shown)
VH: B3 VH with D61Q
B6: Trop-2-YC-82hz-3 (antibody, V domains shown)
VH: B3 VH with Q43K, D61Q, L78V, A87P
B7: Trop-2-YC-82hz-1 (antibody, V domains shown)
VH: B3 VH with A24T, Q43K, L78V
B8: ALGA105T Trop-2 arm (antibody, V domains shown)
V domain 1: B1 VH with E6Q, P88A, A89E
V domain 2: B3 VH with A24T, Q43K, G44Q, L45R, L78V
B9: ALGA105O Trop-2 arm (antibody, V domains shown)
V domain 1: B3 VH with A24T, Q43K, G44Q, L45R, L78V
V domain 2: B1 VH with P14A, S75A, R87K, A89E, Q115K
B10: ALGA105N Trop-2 arm (antibody, V domains shown)
V domain 1: B3 VH with A24T, Q43K, G44Q, L45R, L78V
V domain 2: EVQVVESGGGLVQPGGSLRLSCTAPERIFSIYNMGWYRQAPGKEREWVAFLMEGGRIEYADSVKGRFTISRDNAKSTVYLQMNNLNAEDAAVYYCNAGGRSGYWGKGTLVTVSS
B11: ALGA105M Trop-2 arm (antibody, V domains shown)
V domain 1: B3 VH with A24T, Q43K, G44Q, L45R, L78V
V domain 2: B3 VH with A24T, Q43K, G44Q, L45R, L78V
B12: PD-L1-1.168.15-z1-uIgG1K (antibody, V domains shown)
VH: EVQLVQSGAEVKKPGATVKISCKVSGFNIEDTYIYWVQQAPGKGLEWMGWIDPANYNTKYDPRFQDRVTITADTSTDTAYMELSSLRSEDTAVYYCARGLRLLMDYWGQGTTVTVSS
VL: DIQLTQSPSFLSASVGDRVTITCKASQNVHTSLAWYQQKPGKSPKLLIYLASNRHTGVPSRFSGSGSGTEFTLTISSLQPEDFATYYCLQHWNYPLTFGQGTKLEIKR
B13: PD-L1-1.168.15-z17-uIgG1K (antibody, V domains shown)
VH: B12 VH with I70V, A72V, D77N
VL: B12 VL with L4M, L46A, Y87F
B14: PD-L1-1.168.15-z5-uIgG1K (antibody, V domains shown)
VH: B12 VH
VL: B12 VL with L46A
B15: PD-L1-1.168.15-z2-uIgG1K (antibody, V domains shown)
VH: B12 VH
VL: B12 VL with S43A, L46A
B16: PD-L1-1.168.15-z0-uIgG1K (antibody, V domains shown)
VH: B12 VH
VL: B12 VL with S43A
B17: PD-L1-1.168.15-z6-uIgG1K (antibody, V domains shown)
VH: B12 VH with A72V
VL: B12 VL with S43A, L46A
B18: PD-L1-1.168.15-z18-uIgG1K (antibody, V domains shown)
VH: B12 VH with I20L, M48I, I70V, A72V, D77N
VL: B12 VL with L4M, L46A, Y87F
B19: PD-L1-1.168.15-z202-uIgG1K (antibody, V domains shown)
VH: EVQLQQSGAELVKPGASVKLSCTVSGFNIEDTYIYWVKQRPEQGLEWIGWIDPANYNTKYDPRFQDKATVTVDTSSNTAYMHLSSLTSEDTAVYYCARGLRLLMDYWGQGTSVTVSS
VL: B12 VL with L4M, L46A, Y87F
B20: PD-L1-1.168.15-z16-uIgG1K (antibody, V domains shown)
VH: B12 VH with M48I, A72V, D77N
VL: B12 VL with L4M, L46A, Y87F
B21: PD-L1-1.168.15-z201-uIgG1K (antibody, V domains shown)
VH: B12 VH with I20L, M48I, I70V, A72V, D77N
VL: DIVMTQSQKFMSSSVGDRVSITCKASQNVHTSLAWYQQRPGQSPKALIYLASNRHTGVPDRFTGSGSGTDFTLTISNVQSEDLADYFCLQHWNYPLTFGAGTKLELRR
B22: PD-L1-1.168.15-z14-uIgG1K (antibody)
chain 1: not shown
chain 2: DIQMTQSPSFLSASVGDRVTITCKASQNVHTSLAWYQQKPGKSPKALIYLASNRHTGVPSRFSGSGSGTEFTLTISSLQPEDFATYFCLQHWNYPLTFGQGTKLEIKRTVAAPSVFIFPPSDEQLKSGTASVVCLLNNFYPREAKVQWKVDNALQSGNSQESVTEQDSKDSTYSLSSTLTLSKADYEKHKVYACEVTHQGLSSPVTKSFNRGEC
B23: PD-L1-1.168.15-z15-uIgG1K (antibody)
chain 1: not shown
chain 2: B22 chain 2
B24: PD-L1-1.168.15-z12-uIgG1K (antibody)
chain 1: not shown
chain 2: B22 chain 2 with F87Y
B25: PD-L1-1.168.15-z8-uIgG1K (antibody)
chain 1: not shown
chain 2: B22 chain 2 with M4L, F87Y
B26: PD-L1-1.168.15-z9-uIgG1K (antibody)
chain 1: not shown
chain 2: B22 chain 2 with M4L
B27: PD-L1-1.168.15-z10-uIgG1K (antibody)
chain 1: not shown
chain 2: B22 chain 2 with F87Y
B28: PD-L1-1.168.15-z7-uIgG1K (antibody)
chain 1: not shown
chain 2: B22 chain 2 with M4L, F87Y
B29: PD-L1-1.168.15-z13-uIgG1K (antibody)
chain 1: not shown
chain 2: B22 chain 2 with M4L

Where a chain is given by its changes, count along the chain named.

In one experiment the target is T1, human Trop-2 on MDA-MB-468 cells. Put plainly: FACS.
One may read the EC50 as the midpoint of the concentration-response curve. Consider B1, for which the EC50 came out at 0.279 µg/mL.

As for B2, it took 0.227 µg/mL to reach a half-maximal effect (EC50).

The next experiment concerns the target T2, human Trop-2 (His). Put plainly: SPR. For orientation: Surface plasmon resonance follows binding to a sensor surface in real time, without labels.
What is called Kd is a measure of binding affinity in units of concentration. A higher Kd goes with lower affinity. The molecule B3 came in with a Kd of 75.1 nM.

Take B4: the Kd is 23.8 nM.

The molecule B5 gave a Kd of 76.5 nM.

B6: the dissociation constant (Kd) was 48.2 nM.

Molecule B7 returned a Kd of 38.1 nM.

A further experiment concerns the target T2, human Trop-2 (His). Put plainly: SPR. This is another data set of the same source.
Turning to B8, the Kd was 2.76 nM.

B9 came in with a Kd of 2.22 nM.

In turn, B10 showed a dissociation constant Kd of 0.668 nM.

In turn, B11 registered a Kd of 99.4 nM.

A further experiment addresses T2, human Trop-2 (His). As to the kind of experiment: SPR. This is another data set of the same source.
B1: the Kd came out at 68.9 nM.

Consider B2, for which binding was characterised by a dissociation constant (Kd) of 74.7 nM.

In another experiment the target is hPD-L1(ECD)-His (human, UniProt Q9NZQ7). As to the kind of experiment: SPR supernatant.
Chain of hPD-L1(ECD)-His (Q9NZQ7 19-238): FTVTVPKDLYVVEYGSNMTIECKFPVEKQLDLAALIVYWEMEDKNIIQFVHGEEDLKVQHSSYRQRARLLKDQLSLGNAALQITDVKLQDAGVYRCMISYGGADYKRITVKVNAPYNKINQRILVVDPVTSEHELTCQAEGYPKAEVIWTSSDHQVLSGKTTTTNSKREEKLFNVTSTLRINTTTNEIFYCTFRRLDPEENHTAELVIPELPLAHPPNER
Molecule B12 yielded a Kd of 1.09 nM.

Molecule B13 registered a Kd of 1.67 nM.

Regarding B14, binding was put at a Kd of 1.24 nM.

As to B15, the Kd turned out to be 1.4 nM. The Kd values of the last two molecules are within 1.5-fold of each other.

For B16, the Kd was 1.29 nM.

Regarding B17, the dissociation constant Kd stood at 0.998 nM.

B18 returned a Kd of 1.86 nM.

For B19, binding was put at a Kd of 0.501 nM.

As to B20, the Kd is 1 nM.

For the molecule B21, the Kd came out at 0.844 nM. The Kd values of the last two molecules are within 1.5-fold of each other.

Molecule B22 registered a Kd of 1.07 nM. The Kd values of the last two molecules are within 1.5-fold of each other.

For B23, the affinity, expressed as Kd, was 1.19 nM. The Kd values of the last two molecules are within 1.5-fold of each other.

The molecule B24 yielded a Kd of 1.13 nM.

B25 gave a Kd of 1.13 nM.

With B26, the affinity, expressed as Kd, was 0.915 nM.

The molecule B27 returned a Kd of 0.995 nM.

As for B28, binding was characterised by a dissociation constant (Kd) of 1.01 nM.

Regarding B29, the Kd came to 1.04 nM.
